Patent US20220332804A1 (CSL INNOVATION, published 2022)
Where a chain is given by its changes, count along the chain named.

Assays:
Test in all cases: SPR; KD relative to WT C2;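 also: biacore SPR at 37 °C, anti-C2 mAbs captured on an anti-human IgG chip, alanine or serine C2 surface mutants tested, KD from 1:1 fit compared with wild-type C2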
human C2 S428A = molecular target: T1, human C2 S428A (human, UniProt P06681 21-752)
T1 sequence: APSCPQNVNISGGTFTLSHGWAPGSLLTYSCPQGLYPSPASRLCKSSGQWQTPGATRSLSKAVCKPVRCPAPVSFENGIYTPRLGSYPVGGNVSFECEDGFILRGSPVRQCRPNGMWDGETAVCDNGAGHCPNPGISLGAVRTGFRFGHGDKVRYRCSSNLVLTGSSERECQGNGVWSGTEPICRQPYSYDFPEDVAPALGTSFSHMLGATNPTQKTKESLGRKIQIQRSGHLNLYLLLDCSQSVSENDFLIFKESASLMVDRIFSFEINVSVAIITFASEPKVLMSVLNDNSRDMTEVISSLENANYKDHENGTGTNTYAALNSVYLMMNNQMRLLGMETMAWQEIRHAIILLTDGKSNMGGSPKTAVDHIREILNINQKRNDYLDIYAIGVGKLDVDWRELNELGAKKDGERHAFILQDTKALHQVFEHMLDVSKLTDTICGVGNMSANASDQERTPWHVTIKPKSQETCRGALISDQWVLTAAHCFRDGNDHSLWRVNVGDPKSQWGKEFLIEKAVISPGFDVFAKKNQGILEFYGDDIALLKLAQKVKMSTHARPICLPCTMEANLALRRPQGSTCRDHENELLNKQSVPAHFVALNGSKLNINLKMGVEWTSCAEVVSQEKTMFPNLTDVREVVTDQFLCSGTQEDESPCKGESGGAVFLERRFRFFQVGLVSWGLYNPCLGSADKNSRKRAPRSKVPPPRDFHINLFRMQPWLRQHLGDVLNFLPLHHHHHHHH

human C2 I438A = molecular target: T2, human C2 I438A (human, UniProt P06681 21-752)
T2 sequence: T1 sequence with A408S, I418A

human C2 D417A = molecular target: T3, human C2 D417A (human, UniProt P06681 21-752)
T3 sequence: T1 sequence with D397A, A408S

human C2 N327A = molecular target: T4, human C2 N327A (human, UniProt P06681 21-752)
T4 sequence: T1 sequence with N307A, A408S

B1: RF16-214 (antibody, V domains shown)
VH: EVQLLESGGGLVQPGGSLRLSCAASGFTFSWYQMMWVRQAPGKGLEWVSRIYPSGGGTAYADSVKGRFTISRDNSKNTLYLQMNSLRAEDTAVYYCARDAGYGDNWGQGTLVTVSS
VL: QSALTQPPSVSVSPGQTASITCSGDKLGEKYASWYQQKAGQSPVMVIYQDRKRPSGIPERFSGSNSGNTATLTISGTQAMDEADYYCQAWDTRAVVFGGGTKLTVLG
- Fold diff (human C2 S428A): 2 fold
- Fold diff (human C2 I438A): 1 fold
- Fold diff (human C2 D417A): 2 fold
- Fold diff (human C2 N327A): 7 fold
